Laboratory results from patent US20100040616A1 (published 2010).
One block for each binder: values may come before it.

Assays:
[1] = biological target: T1, recombinant human CD127 extracellular domain (CD127 ECD) (human) (UniProt P16871); assay: blocking of IL-7/IL-7Rα binding; competitor IL-7; method not given
T1 sequence: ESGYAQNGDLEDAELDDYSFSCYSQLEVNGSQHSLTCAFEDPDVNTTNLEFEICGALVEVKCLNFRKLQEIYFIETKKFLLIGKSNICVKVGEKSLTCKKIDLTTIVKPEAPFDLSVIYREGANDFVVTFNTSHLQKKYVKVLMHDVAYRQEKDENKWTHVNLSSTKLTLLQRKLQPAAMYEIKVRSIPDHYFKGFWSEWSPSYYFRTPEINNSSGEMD

[2] = biological target: T1, recombinant human CD127 extracellular domain (CD127 ECD) (human); assay: SPR (Biacore T100, 25 °C), antibody captured on rabbit anti-mouse IgG, CD127 ECD as analyte
[3] = biological target: T1, recombinant human CD127 extracellular domain (CD127 ECD) (human); assay: affinity for the IL-7Rα ECD (profile summary; SPR)
[4] = biological target: T2, human CD127 expressed on cells (CD127-transfected CHO cells; PBMC and CD4+ T cells in functional assays) (human, UniProt P16871 21-459); assay: Flow cytometry cross-competition on CHO-CD127 cells: unlabelled antibody titrated against fluorescence-labelled BD anti-CD127 antibody (#552853)
T2 construct: The construct transfected into CHO is not described further; also called CHO-CD127; IL-7Rα expressed on CHO
T2 chain: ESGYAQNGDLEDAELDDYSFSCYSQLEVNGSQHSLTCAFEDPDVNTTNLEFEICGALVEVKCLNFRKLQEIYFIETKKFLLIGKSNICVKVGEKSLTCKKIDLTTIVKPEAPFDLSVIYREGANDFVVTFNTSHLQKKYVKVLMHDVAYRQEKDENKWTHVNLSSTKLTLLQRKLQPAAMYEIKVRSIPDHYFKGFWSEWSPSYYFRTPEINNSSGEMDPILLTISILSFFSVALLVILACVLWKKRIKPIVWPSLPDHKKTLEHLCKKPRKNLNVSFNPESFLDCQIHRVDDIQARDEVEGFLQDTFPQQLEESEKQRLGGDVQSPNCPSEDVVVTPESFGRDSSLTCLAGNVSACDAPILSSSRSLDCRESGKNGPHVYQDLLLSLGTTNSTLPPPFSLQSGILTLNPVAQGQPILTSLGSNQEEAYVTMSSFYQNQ
Method: CHO-CD127 cells were prepared and washed by cold DPBS for 3 times. […] The antibody mixtures were then incubated with the CHO-CD127 cells for 30 min at 4° C. […] (FIG. 15).

[5] = biological target: T1, recombinant human CD127 extracellular domain (CD127 ECD) (human); assay: ELISA: recombinant human CD127 ECD coated at 5 ug/ml, 9B7 hybridoma material titrated, HRP goat anti-mouse IgG detection
[6] = biological target: T1, recombinant human CD127 extracellular domain (CD127 ECD) (human); assay: SPR (Biacore T100), CD127 ECD amine-coupled on CM5, antibody (supernatant material) as analyte

B1: mAb 6A3 (murine anti-human CD127 monoclonal antibody) (antibody, mouse IgG1, V domains shown)
VH: DVQLQESGPGLVKPSQSLSLTCTVTGYSITTDYAWNWIRQFPGNKLEWMGYIFYSGSTTYTPSLKSRISITRDTSKNQFFLQLNSVTTEDTATYYCARGGYDVNYFDYWGQGTTLTVSS
VL: DIQMTQSPASQSASLGESVTITCLASQTIGAWLAWYQQKPGKSPQLLIYAATRLADGVPSRFSGSGSGTKFSFKISSLQAEDFVSYYCQQFFSTPWTFGGGTKLEIK
IC50 [1]: 1.92 µg/mL
Kd [2]: 7.74 nM
koff [2]: 0.000146 s⁻¹
kon [2]: 18900 M⁻¹ s⁻¹
Kd [3]: 7.99 nM
koff [3]: 0.000334 s⁻¹

B2: mAb 6C5 (murine anti-human CD127 monoclonal antibody) (antibody, mouse IgG1, V domains shown)
VH: EVKLLESGGGLVQPGGSLKLSCAASGFAFSAYWMSWVRQAPGKGLEWIGEINPDSSTINCTPSLKDKFIISRDNAKNTLSLQMNKVRSEDTALYYCARRLRPFWYFDVWGAGTTVTVSS
VL: DVLMTQTPLSLPVSLGDQASISCRSSQSIVQSNGNTYLEWYLQKPGQSPKLLIYKVSNRFSGVPDRFSGSGSGTDFTLKISRVEAEDLGVYYCFQGSHVPRTFGGGTKLEIK
notes: also called Antibody 6C5
Kd [2]: 24.4 nM
koff [2]: 0.000436 s⁻¹
kon [2]: 17900 M⁻¹ s⁻¹
IC50 (read off the curve) [4]: ~70 µg/mL

B4: mAb 1A11 (murine anti-human CD127 monoclonal antibody) (antibody, mouse IgG1, V domains shown)
VH: EVQLQQSGPELLKPGASMKISCKASGYSFTGYTMNWVKQSHGKNLEWIGLINPYNGVTSYNQKFKGKATLTVAKSSSTAYMELLSLTSEDSAVYYCARGDGNYWYFDVWGAGTTVTVSS
VL: EIVLTQSPAITAASLGQKVTITCSASSSVTYMHWYQQKSGTSPKPWIYEISKLASGVPVRFSGSGSGTSYSLTISSMEAEDAAIYYCQEWNYPYTFGGGTKLEIK
IC50 [1]: 1.79 µg/mL
Kd [2]: 3.44 nM
koff [2]: 0.000251 s⁻¹

Further lines, results first:

EC50 (read off the curve) [5]: 0.6 µg/mL
Kd [6]: 0.556 nM
B3: mAb 9B7 (murine anti-human CD127 monoclonal antibody) (antibody, IgG1, V domains shown)
VH: QVQLQESGPGLVAPSQSLSITCTVSGFSLSRYNVHWVRQPPGKGLEWLGMIWDGGSTDYNSALKSRLSITKDNSKSQVFLKMNSLQTDDTAMYYCARNRYESGMDYWGQGTTVTVSS
VL: DIVMTQTPSSLTVTAGEKVTMSCKSSQSLLNSGNRKNYLTWYQQKPGQSPKLLIYWASTRESGVPDRFTGSGSGTDFTLIISSVQAEDLAVYYCQNDYTYPFTFGSGTKLEIKR

IC50 [1]: 2.29 µg/mL
Kd [2]: 15.3 nM
koff [2]: 0.000875 s⁻¹
B5: mAb GR34 (reverse engineered clone of R34.34) (antibody, mouse IgG1, V domains shown)
VH: EVQLQQSGPELVKPGASMKISCKASGYSFTGYTMNWVKQSHGKNLEWIGLINPYSGITSYNQNFKGKATLTVDKSSSTAYMELLNLTSEDSAVYYCARGDGNYWYFDVWGAGTTVTVSS
VL: EIILTQSPAITAASLGQKVTITCSASSSVSYMHWYQQKSGTSPKPWIYEISKLASGVPARFSGSGSGTSYSLTISSMEAEDAAIYYCQYWNYPYTFGGGTKLEIK
